Experimental findings from patent US20210101960A1 are described below.

pKd: −log10 of the molar value.

The target of assay [1] is opioid sensor based on the Mu-opioid receptor (cpGFP inserted into the Loop3 of the Mu-opioid receptor) (human). Description: in situ fluorescence titration (drug/response curve, 1 nM to 1 µM DAMGO) on HEK293T cells expressing the opioid sensor.
For assay [2] the target is unchanged. Description: cell-based or functional assay.

The term pKd denotes the negative decadic logarithm of the Kd, by convention in mol/L. Higher therefore signals a small Kd. Substance DAMGO (peptide) had a pKd in assay [1] of 7.60. Moreover, in assay [2], the ΔF/F (fluorescence change of the sensor) was found to be 25%.
